Source: IntAct's records for PubMed 32296183

B1: Succinate--CoA ligase [ADP-forming] subunit beta, mitochondrial (Homo sapiens), Q9P2R7 (parent)
chain: MAASMFYGRLVAVATLRNHRPRTAQRAAAQVLGSSGLFNNHGLQVQQQQQRNLSLHEYMSMELLQEAGVSVPKGYVAKSPDEAYAIAKKLGSKDVVIKAQVLAGGRGKGTFESGLKGGVKIVFSPEEAKAVSSQMIGKKLFTKQTGEKGRICNQVLVCERKYPRREYYFAITMERSFQGPVLIGSSHGGVNIEDVAAESPEAIIKEPIDIEEGIKKEQALQLAQKMGFPPNIVESAAENMVKLYSLFLKYDATMIEINPMVEDSDGAVLCMDAKINFDSNSAYRQKKIFDLQDWTQEDERDKDAAKANLNYIGLDGNIGCLVNGAGLAMATMDIIKLHGGTPANFLDVGGGATVHQVTEAFKLITSDKKVLAILVNIFGGIMRCDVIAQGIVMAVKDLEIKIPVVVRLQGTRVDDAKALIADSGLKILACDDLDEAARMVVKLSEIVTLAKQAHVDVKFQLPI
B2: Succinate--CoA ligase [ADP-forming] subunit beta, mitochondrial (Homo sapiens), Q9P2R7 (parent)
chain: B1 chain
partner: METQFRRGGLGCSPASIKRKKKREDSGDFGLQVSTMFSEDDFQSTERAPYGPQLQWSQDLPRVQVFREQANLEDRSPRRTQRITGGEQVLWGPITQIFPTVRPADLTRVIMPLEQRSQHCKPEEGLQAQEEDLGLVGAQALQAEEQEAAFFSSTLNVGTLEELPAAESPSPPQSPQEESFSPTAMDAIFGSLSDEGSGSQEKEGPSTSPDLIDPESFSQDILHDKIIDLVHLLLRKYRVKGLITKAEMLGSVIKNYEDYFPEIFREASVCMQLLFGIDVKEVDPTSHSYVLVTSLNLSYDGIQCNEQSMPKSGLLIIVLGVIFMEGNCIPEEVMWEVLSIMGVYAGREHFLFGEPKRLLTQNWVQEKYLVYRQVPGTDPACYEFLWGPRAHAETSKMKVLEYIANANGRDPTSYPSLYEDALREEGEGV

Variants of: B1
Conditions: with sc23a_human SEC23A

Variant	effect of a mutation on the interaction
MAASMFYGRLVAVATLRNHRPRTAQRAAAQVLGSSGLFNNHGLQVQQQQQRNLSLHEYMSMELLQEAGVSVPKGYVAKSPDEAYAIAKKLGSKDVVIKAQVLAGGRGKGTFESGLKGRVKIVFSPEEAKAVSSQMIGKKLFTKQTGEKGRICNQVLVCERKYPRREYYFAITMERSFQGPVLIGSSHGGVNIEDVAAESPEAIIKEPIDIEEGIKKEQALQLAQKMGFPPNIVESAAENMVKLYSLFLKYDATMIEINPMVEDSDGAVLCMDAKINFDSNSAYRQKKIFDLQDWTQEDERDKDAAKANLNYIGLDGNIGCLVNGAGLAMATMDIIKLHGGTPANFLDVGGGATVHQVTEAFKLITSDKKVLAILVNIFGGIMRCDVIAQGIVMAVKDLEIKIPVVVRLQGTRVDDAKALIADSGLKILACDDLDEAARMVVKLSEIVTLAKQAHVDVKFQLPI [G118R]	disrupting interaction strength
MAASMFYGRLVAVATLRNHRPRTAQRAAAQVLGSSGLFNNHGLQVQQQQQRNLSLHEYMSMELLQEAGVSVPKGYVAKSPDEAYAIAKKLGSKDVVIKAQVLAGGRGKGTFESGLKGGVKIVFSPEEAKAVSSQMIGKKLFTKQTGEKGRICNQVLVCERKYPRREYYFAITMERSFQGPVLIGSSHGGVNIEDVAAESPEAIIKEPIDIEEGIKKEQALQLAQKMGFPPNIVESAAENMVKLYSLFLKYNATMIEINPMVEDSDGAVLCMDAKINFDSNSAYRQKKIFDLQDWTQEDERDKDAAKANLNYIGLDGNIGCLVNGAGLAMATMDIIKLHGGTPANFLDVGGGATVHQVTEAFKLITSDKKVLAILVNIFGGIMRCDVIAQGIVMAVKDLEIKIPVVVRLQGTRVDDAKALIADSGLKILACDDLDEAARMVVKLSEIVTLAKQAHVDVKFQLPI [D251N]	disrupting interaction strength

Variants of: B1
Conditions: with mal2_human MAL2, Q969L2
Chain of mal2_human MAL2, Q969L2 (Q969L2 whole entry): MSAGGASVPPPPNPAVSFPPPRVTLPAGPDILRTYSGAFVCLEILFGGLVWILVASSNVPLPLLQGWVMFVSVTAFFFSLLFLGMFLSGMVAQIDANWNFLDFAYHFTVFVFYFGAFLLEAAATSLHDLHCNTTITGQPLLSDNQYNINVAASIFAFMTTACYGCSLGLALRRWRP

Variant	effect of a mutation on the interaction
MAASMFYGRLVAVATLRNHRPRTAQRAAAQVLGSSGLFNNHGLQVQQQQQRNLSLHEYMSMELLQEAGVSVPKGYVAKSPDEAYAIAKKLGSKDVVIKAQVLAGGRGKGTFESGLKGRVKIVFSPEEAKAVSSQMIGKKLFTKQTGEKGRICNQVLVCERKYPRREYYFAITMERSFQGPVLIGSSHGGVNIEDVAAESPEAIIKEPIDIEEGIKKEQALQLAQKMGFPPNIVESAAENMVKLYSLFLKYDATMIEINPMVEDSDGAVLCMDAKINFDSNSAYRQKKIFDLQDWTQEDERDKDAAKANLNYIGLDGNIGCLVNGAGLAMATMDIIKLHGGTPANFLDVGGGATVHQVTEAFKLITSDKKVLAILVNIFGGIMRCDVIAQGIVMAVKDLEIKIPVVVRLQGTRVDDAKALIADSGLKILACDDLDEAARMVVKLSEIVTLAKQAHVDVKFQLPI [G118R]	disrupting interaction strength
MAASMFYGRLVAVATLRNHRPRTAQRAAAQVLGSSGLFNNHGLQVQQQQQRNLSLHEYMSMELLQEAGVSVPKGYVAKSPDEAYAIAKKLGSKDVVIKAQVLAGGRGKGTFESGLKGGVKIVFSPEEAKAVSSQMIGKKLFTKQTGEKGRICNQVLVCERKYPRREYYFAITMERSFQGPVLIGSSHGGVNIEDVAAESPEAIIKEPIDIEEGIKKEQALQLAQKMGFPPNIVESAAENMVKLYSLFLKYNATMIEINPMVEDSDGAVLCMDAKINFDSNSAYRQKKIFDLQDWTQEDERDKDAAKANLNYIGLDGNIGCLVNGAGLAMATMDIIKLHGGTPANFLDVGGGATVHQVTEAFKLITSDKKVLAILVNIFGGIMRCDVIAQGIVMAVKDLEIKIPVVVRLQGTRVDDAKALIADSGLKILACDDLDEAARMVVKLSEIVTLAKQAHVDVKFQLPI [D251N]	disrupting interaction strength

Variants of: B1
Conditions: with ar6p1_human ARL6IP1, Q15041
Chain of ar6p1_human ARL6IP1, Q15041 (Q15041 whole entry): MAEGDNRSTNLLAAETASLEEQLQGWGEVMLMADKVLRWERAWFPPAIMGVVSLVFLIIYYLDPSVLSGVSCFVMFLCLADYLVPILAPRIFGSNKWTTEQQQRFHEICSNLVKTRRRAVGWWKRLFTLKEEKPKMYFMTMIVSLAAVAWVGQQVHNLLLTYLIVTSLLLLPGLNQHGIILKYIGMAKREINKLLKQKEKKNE

Variant	effect of a mutation on the interaction
MAASMFYGRLVAVATLRNHRPRTAQRAAAQVLGSSGLFNNHGLQVQQQQQRNLSLHEYMSMELLQEAGVSVPKGYVAKSPDEAYAIAKKLGSKDVVIKAQVLAGGRGKGTFESGLKGRVKIVFSPEEAKAVSSQMIGKKLFTKQTGEKGRICNQVLVCERKYPRREYYFAITMERSFQGPVLIGSSHGGVNIEDVAAESPEAIIKEPIDIEEGIKKEQALQLAQKMGFPPNIVESAAENMVKLYSLFLKYDATMIEINPMVEDSDGAVLCMDAKINFDSNSAYRQKKIFDLQDWTQEDERDKDAAKANLNYIGLDGNIGCLVNGAGLAMATMDIIKLHGGTPANFLDVGGGATVHQVTEAFKLITSDKKVLAILVNIFGGIMRCDVIAQGIVMAVKDLEIKIPVVVRLQGTRVDDAKALIADSGLKILACDDLDEAARMVVKLSEIVTLAKQAHVDVKFQLPI [G118R]	disrupting interaction strength
MAASMFYGRLVAVATLRNHRPRTAQRAAAQVLGSSGLFNNHGLQVQQQQQRNLSLHEYMSMELLQEAGVSVPKGYVAKSPDEAYAIAKKLGSKDVVIKAQVLAGGRGKGTFESGLKGGVKIVFSPEEAKAVSSQMIGKKLFTKQTGEKGRICNQVLVCERKYPRREYYFAITMERSFQGPVLIGSSHGGVNIEDVAAESPEAIIKEPIDIEEGIKKEQALQLAQKMGFPPNIVESAAENMVKLYSLFLKYNATMIEINPMVEDSDGAVLCMDAKINFDSNSAYRQKKIFDLQDWTQEDERDKDAAKANLNYIGLDGNIGCLVNGAGLAMATMDIIKLHGGTPANFLDVGGGATVHQVTEAFKLITSDKKVLAILVNIFGGIMRCDVIAQGIVMAVKDLEIKIPVVVRLQGTRVDDAKALIADSGLKILACDDLDEAARMVVKLSEIVTLAKQAHVDVKFQLPI [D251N]	disrupting interaction strength

Variants of: B2
Conditions: with magab_human MAGEA11, P43364

Variant	effect of a mutation on the interaction
MAASMFYGRLVAVATLRNHRPRTAQRAAAQVLGSSGLFNNHGLQVQQQQQRNLSLHEYMSMELLQEAGVSVPKGYVAKSPDEAYAIAKKLGSKDVVIKAQVLAGGRGKGTFESGLKGRVKIVFSPEEAKAVSSQMIGKKLFTKQTGEKGRICNQVLVCERKYPRREYYFAITMERSFQGPVLIGSSHGGVNIEDVAAESPEAIIKEPIDIEEGIKKEQALQLAQKMGFPPNIVESAAENMVKLYSLFLKYDATMIEINPMVEDSDGAVLCMDAKINFDSNSAYRQKKIFDLQDWTQEDERDKDAAKANLNYIGLDGNIGCLVNGAGLAMATMDIIKLHGGTPANFLDVGGGATVHQVTEAFKLITSDKKVLAILVNIFGGIMRCDVIAQGIVMAVKDLEIKIPVVVRLQGTRVDDAKALIADSGLKILACDDLDEAARMVVKLSEIVTLAKQAHVDVKFQLPI [G118R]	disrupting interaction strength
MAASMFYGRLVAVATLRNHRPRTAQRAAAQVLGSSGLFNNHGLQVQQQQQRNLSLHEYMSMELLQEAGVSVPKGYVAKSPDEAYAIAKKLGSKDVVIKAQVLAGGRGKGTFESGLKGGVKIVFSPEEAKAVSSQMIGKKLFTKQTGEKGRICNQVLVCERKYPRREYYFAITMERSFQGPVLIGSSHGGVNIEDVAAESPEAIIKEPIDIEEGIKKEQALQLAQKMGFPPNIVESAAENMVKLYSLFLKYNATMIEINPMVEDSDGAVLCMDAKINFDSNSAYRQKKIFDLQDWTQEDERDKDAAKANLNYIGLDGNIGCLVNGAGLAMATMDIIKLHGGTPANFLDVGGGATVHQVTEAFKLITSDKKVLAILVNIFGGIMRCDVIAQGIVMAVKDLEIKIPVVVRLQGTRVDDAKALIADSGLKILACDDLDEAARMVVKLSEIVTLAKQAHVDVKFQLPI [D251N]	disrupting interaction strength
